From the supplement of paper PMC10126150
± gives the standard deviation of the averaged measurements.

System: ATP
Experiment: switch fluorescence ratio, 500 uM ATP over buffer (Cy3 cluster intensity, sum of 5 cycles each) (fold (ratio)); higher = stronger signal-on switching upon ATP binding; sequences stand for … in TCGTCGGCAGCGTCAGATGTGTATAAGAGACAGTTTTTTTTTTTTTTTTTTTTTTTTT…TC
Conditions: aptamer strand: ATP DNA aptamer (quencher-CACCTGGGGGAGTATTGCGGAGGAAGG + anchor), 100 nM annealed; ATP concentration: 500 uM
Procedure, shortened: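 Clusters carrying Cy3-labelled switching strands on a modified Illumina MiSeq flow-cell were annealed to 100 nM quencher-labelled ATP aptamer and imaged in selection buffer. They were imaged again after 15 min with 500 uM ATP at 22 °C, over five buffer/ATP cycles with NaOH stripping and re-annealing in between. For each cluster, the fluorescence ratio is the summed Cy3 intensity of the target cycles divided by that of the buffer cycles, averaged per switch-domain sequence. Clusters outside 100-1000 RFU were left out.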
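Further: ATP exposure 15 min at 22 °C before imaging.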

Sequence | switch fluorescence ratio
GAGGAAAAAT | 1.062 ± 0.0021
GAGGAAGGAC | 1.04 ± 0.014
GAGGACTCGT | 1.01 ± 0.016
GAGGAGGTTT | 0.968 ± 0.017
GAGGATATGT | 0.971 ± 0.035
GAGGATCAGG | 1.03 ± 0.056
GAGGATCTTG | 1 ± 0.031
GAGGATGATC | 1.01 ± 0.032
GAGGATGGGA | 0.98 ± 0.022
GAGGCCATTT | 1.01 ± 0.046
GAGGCCGTTG | 1.02 ± 0.023
GAGGCGAGTC | 1.06 ± 0.029
GAGGCGGGGA | 1.01 ± 0.03
GAGGCGTATT | 0.988 ± 0.049
GAGGCGTCAA | 0.997 ± 0.027
GAGGCTAGGG | 1.05 ± 0.031
GAGGCTAGGT | 1.01 ± 0.029
GAGGCTATGG | 1.01 ± 0.022
GAGGCTCATT | 0.964 ± 0.035
GAGGCTTAAT | 0.9822 ± 0.0078
GAGGCTTTTT | 0.979 ± 0.024
GAGGGAAAAG | 1.01 ± 0.032
GAGGGAAGTA | 1.06 ± 0.17
GAGGGACGGG | 1.02 ± 0.025
GAGGGAGGTG | 1.02 ± 0.018

Sequence | switch fluorescence ratio
GAGGGAGTGG | 1.01 ± 0.037
GAGGGATTCT | 0.99037 ± 0.00064
GAGGGATTTT | 1.02 ± 0.017
GAGGGCAATC | 2.76 ± 0.64
GAGGGCAATG | 1.22 ± 0.067
GAGGGCACTG | 0.956 ± 0.023
GAGGGCCAGG | 1.13 ± 0.076
GAGGGCCTGA | 1.01 ± 0.012
GAGGGCGGGG | 1.05 ± 0.077
GAGGGCTAAA | 1.06 ± 0.082
GAGGGCTACT | 1.04 ± 0.041
GAGGGCTTTG | 1 ± 0.031
GAGGGGAAAT | 0.999 ± 0.029
GAGGGGAGAG | 1 ± 0.016
GAGGGGAGCT | 1.01 ± 0.045
GAGGGGAGGC | 1.29 ± 0.39
GAGGGGCACG | 0.935 ± 0.1
GAGGGGCCAG | 0.988 ± 0.027
GAGGGGGATC | 1.02 ± 0.035
GAGGGGGCAA | 1.01 ± 0.016
GAGGGGGGGG | 1.01 ± 0.039
GAGGGGGGTC | 1.04 ± 0.064
GAGGGGGTGG | 1 ± 0.064
GAGGGGTTCT | 0.984 ± 0.043
GAGGGTAATA | 1.01 ± 0.017

Sequence | switch fluorescence ratio
GAGGGTAGTT | 1.031 ± 0.0055
GAGGGTCGGG | 0.988 ± 0.033
GAGGGTGGGG | 1.01 ± 0.04
GAGGGTGTCA | 0.995 ± 0.017
GAGGGTTAC | 1.006 ± 0.0062
GAGGGTTGCT | 1.01 ± 0.036
GAGGTAAAGC | 1 ± 0.08
GAGGTAATC | 1.02 ± 0.037
GAGGTAGAGG | 0.986 ± 0.026
GAGGTAGATG | 0.991 ± 0.0012
GAGGTAGTGG | 0.968 ± 0.027
GAGGTATCAT | 0.9847 ± 0.0073
GAGGTATTTT | 1.34 ± 0.65
GAGGTCGTGA | 0.975 ± 0.019
GAGGTGAAGA | 0.979 ± 0.046
GAGGTGAAGG | 1.04 ± 0.055
GAGGTGAGG | 0.989 ± 0.011
GAGGTGGTAG | 0.951 ± 0.034
GAGGTGGTTA | 0.976 ± 0.015
GAGGTGTAGC | 1.01 ± 0.028
GAGGTGTTTT | 1.01 ± 0.06
GAGGTTACGC | 0.988 ± 0.053
GAGGTTAGCT | 0.976 ± 0.046
GAGGTTAGGT | 0.981 ± 0.01
GAGGTTATAG | 0.998 ± 0.02

Sequence | switch fluorescence ratio
GAGGTTATTG | 0.99 ± 0.025
GAGGTTCTAT | 1.0012 ± 0.00094
GAGGTTGTCA | 0.958 ± 0.038
GAGGTTGTG | 1.01 ± 0.025
GAGTAAGTA | 1.002 ± 0.0064
GAGTAATGCT | 1.27 ± 0.017
GAGTACAAAG | 1.02 ± 0.0041
GAGTACAGCT | 1.01 ± 0.018
GAGTACTGTA | 1.14 ± 0.053
GAGTAGAGGG | 0.954 ± 0.014
GAGTAGCATG | 0.993 ± 0.022
GAGTAGGAGC | 1.02 ± 0.033
GAGTAGGCTA | 0.973 ± 0.035
GAGTAGTGCT | 1.03 ± 0.018
GAGTAGTGGG | 0.982 ± 0.037
GAGTAGTGTT | 0.984 ± 0.02
GAGTAGTTGT | 0.9969 ± 0.0083
GAGTATGAGA | 1.009 ± 0.01
GAGTATTAGG | 1.02 ± 0.0094
GAGTATTTTC | 1.015 ± 0.0065
GAGTCAGAGG | 0.989 ± 0.039
GAGTCAGC | 1.08 ± 0.14
GAGTCAGTAT | 1.03 ± 0.039
GAGTCGAATT | 0.9738 ± 0.0058
GAGTCGGATG | 0.967 ± 0.012

Sequence | switch fluorescence ratio
GAGTCTTTGG | 0.973 ± 0.021
GAGTCTTTTG | 1.013 ± 0.0096
GAGTGAATTT | 1.0074 ± 0.00014
GAGTGAGACT | 1.02 ± 0.072
GAGTGATAAG | 1 ± 0.017
GAGTGCGCTG | 1.02 ± 0.04
GAGTGCGGAT | 0.98 ± 0.026
GAGTGCTATT | 0.981 ± 0.013
GAGTGGAGTG | 1.02 ± 0.079
GAGTGGGATT | 0.981 ± 0.011
GAGTGGGGTT | 1.011 ± 0.0024
GAGTGGGTCG | 0.983 ± 0.024
GAGTGGTAGG | 1.01 ± 0.021
GAGTGTAGTC | 1.06 ± 0.011
GAGTGTCGCC | 0.99 ± 0.021
GAGTGTGATG | 0.97 ± 0.021
GAGTTACATG | 1.02 ± 0.048
GAGTTAGAAG | 0.9657 ± 0.0014
GAGTTAGTCA | 0.975 ± 0.024
GAGTTAGTTG | 0.987 ± 0.093
GAGTTATTGT | 0.9806 ± 0.0095
GAGTTATTTT | 0.976 ± 0.017
GAGTTCGTAA | 1.46 ± 0.15
GAGTTCTTAG | 0.9587 ± 0.0011
GAGTTCTTCA | 0.973 ± 0.015

Sequence | switch fluorescence ratio
GAGTTGAGTT | 1.01 ± 0.074
GAGTTGGGTT | 1.01 ± 0.034
GAGTTGTGCC | 1.1 ± 0.032
GAGTTTCATG | 0.963 ± 0.015
GAGTTTGAAA | 0.993 ± 0.041
GAGTTTGAAT | 0.969 ± 0.021
GAGTTTGTGT | 0.996 ± 0.011
GAGTTTGTTG | 0.985 ± 0.014
GAGTTTTTTT | 0.987 ± 0.033
GATAAACGAT | 1.02 ± 0.031
GATAAAGTGG | 0.995 ± 0.041
GATAAGTCGG | 1.009 ± 0.01
GATAATCTGT | 0.984 ± 0.048
GATAATTGAG | 1.04 ± 0.044
GATAATTTGT | 0.973 ± 0.065
GATACATTAT | 0.998 ± 0.028
GATACCGTGC | 1.18 ± 0.061
GATACCTTTT | 1.13 ± 0.24
GATACGAACG | 1.32 ± 0.043
GATACGAAGT | 0.981 ± 0.028
GATACGGGGA | 0.988 ± 0.029
GATACTGAAC | 1.3 ± 0.024
GATAGACGGT | 1.01 ± 0.047
GATAGAGATT | 0.9961 ± 0.0066
GATAGAGTAG | 1.016 ± 0.0019

Sequence | switch fluorescence ratio
GATAGCGGGA | 0.97 ± 0.058
GATAGGGCAA | 1.08 ± 0.075
GATAGGGCTT | 0.994 ± 0.056
GATAGGGTAC | 1.0351 ± 0.0001
GATAGGTGCC | 1.002 ± 0.0027
GATAGGTTGG | 0.985 ± 0.066
GATAGTTCGC | 1.01 ± 0.015
GATATATATC | 0.9903 ± 0.0054
GATATATGCA | 0.997 ± 0.028
GATATATGGT | 0.9833 ± 0.0077
GATATGGCAC | 1.05 ± 0.042
GATATGTGTT | 1.001 ± 0.0024
GATATGTTCC | 1.13 ± 0.084
GATATGTTTT | 1 ± 0.035
GATATTATGA | 1.01 ± 0.01
GATATTCCTG | 1 ± 0.03
GATATTGGTT | 1.02 ± 0.025
GATATTTGGA | 0.996 ± 0.041
GATATTTTA | 0.9929 ± 0.0069
GATCAGCCCG | 1.016 ± 0.005
GATCAGGGGT | 1.06 ± 0.044
GATCAGGTCT | 0.987 ± 0.032
GATCAGTGTT | 0.9783 ± 0.0093
GATCATAAAA | 1.02 ± 0.017
GATCATAGGG | 1.01 ± 0.018

Sequence | switch fluorescence ratio
GATCATCCTG | 1.008 ± 0.0065
GATCCAATGT | 0.993 ± 0.019
GATCCATGCT | 0.9536 ± 0.0019
GATCCGCTGG | 1.11 ± 0.012
GATCCGGGGG | 0.988 ± 0.043
GATCCTGGGG | 0.974 ± 0.054
GATCGAAACT | 1.01 ± 0.081
GATCGAGACC | 1.024 ± 0.0044
GATCGGATGT | 0.981 ± 0.011
GATCGGGGGG | 0.983 ± 0.041
GATCGGGGTG | 0.965 ± 0.021
GATCGGTGCT | 1 ± 0.015
GATCGTACTT | 1.08 ± 0.015
GATCGTTGTC | 0.988 ± 0.027
GATCGTTTTA | 1 ± 0.022
GATCTAAAAG | 1.03 ± 0.017
GATCTAGGAG | 1.02 ± 0.017
GATCTGGACA | 1.01 ± 0.032
GATCTTCGTT | 1.01 ± 0.041
GATCTTGTTT | 0.976 ± 0.018
GATCTTTCAT | 1 ± 0.018
GATCTTTTTT | 1.02 ± 0.023
GATGAAAAAA | 1.02 ± 0.037
GATGAAAGGC | 1.046 ± 0.0017
GATGAAAGGT | 1.002 ± 0.0047
